Laboratory results taken from publication PMC5932034.

Tests used:
[1] = molecular target: cytoplasmic domain of Salmonella enterica serovar Typhimurium FlhA (FlhA^C) (UniProt P40729); test: ITC; conditions: read off a plot
[2] = molecular target: cytoplasmic domain of Salmonella enterica serovar Typhimurium FlhA (FlhA^C) (Salmonella enterica serovar Typhimurium ST313) (UniProt P40729); test: ITC; FlhA^C and variants (0.1–0.2 mM) in the cell, FliT-FliD, FliS-FliC and variants (1.0–2.0 mM) in the syringe; 25 °C; 50 mM NaPi pH 6.8, 300 mM NaCl, 0.05% NaN3; one-site binding model
[3] = molecular target: fused FliS−FliC^C construct (FliC^C fused to the C terminus of FliS) (UniProt P06179); test: ITC; conditions: read off a plot

Substance | ratio to parent [1] [fold] | Kd [2] [µM] | also measured
fused FliT−FliD^C construct (FliD^C fused to the N terminus of FliT) (from UniProt P16328) R98D | 4.5 | – | –
fused FliS−FliC^C construct (FliC^C fused to the C terminus of FliS) (from UniProt P06179 454-495) | – | 10 | –
fused FliT−FliD^C construct (FliD^C fused to the N terminus of FliT) (from UniProt P16328) | – | 20 | –
fused FliT−FliD^C construct (FliD^C fused to the N terminus of FliT) (from UniProt P16328) I93D | 3.3 | – | –
cytoplasmic domain of Salmonella enterica serovar Typhimurium FlhA (FlhA^C) (from UniProt P40729) L476A | – | – | ratio to parent [3]: 8 fold
